The results in this text go back to US6858210B1, “Therapeutic and diagnostic domain 1 β2GPI polypeptides and methods of using same” (La Jolla Pharmaceutical Co., priority 1998, dated 2005).

B1: 2D9: phage clone displaying β2GPI domain 1 mutant T3P (protein)
chain: GRPCPKPDDLPFSTVVPLKTFYEPGEEITYSCKPGYVSRGGMRKFICPLTGLWPINTLKCTPRVAEPVESCLAKPHTENSFTNVWKDDKTLDRYANYEGCLWNATGVVVCTGDETQCYGTWVPIGLAIPENEGGGSEGGGSEGGGSEGGGTKPPEYGDTPIPGYTYINPLDGTYPPGTEQNPANPNPSLEESQPLNTFMFQNNRFRNRQGALTVYTGTVTQGTDPVKTYYQYTPVSSKAMYDAYWNGKFRDCAFHSGFNEDPFVCEYQGQSSDLPQPPVNAGGGSGGGSGGGSEGGGSEGGGSEGGGSEGGGSGGGSGSGDFDYEKMANANKGAMTENADENALQSDAKGKLDSVATDYGAAIDGFIGDVSGLANGNGATGDFAGSNSQMAQVGDGDNSPLMNNFRQYLPSLPQSVECRPYVFGAGKPYEFSIDCDKINLFRGVFAFLLYVATFMYVFSTFANILRNKES
B2: 2A1: phage clone, domain 1 mutant T20S (protein)
chain: GRTCPKPDDLPFSTVVPLKSFYEPGEEITYSCKPGYVSRGGMRKFICPLTGLWPINTLKCTPRV
B3: B11: phage clone, domain 1 mutant M42K (protein)
chain: B2 chain with S20T, M42K
B4: 2D4: phage clone, domain 1 mutant M42T (protein)
chain: B2 chain with S20T, M42T
B5: 2B2: phage clone, domain 1 mutant V37E (protein)
chain: B2 chain with S20T, V37E
B6: A10: phage clone, domain 1 mutant D8G (protein)
chain: B2 chain with D8G, S20T
B7: 2D12: phage clone, domain 1 mutant F45L (protein)
chain: B2 chain with S20T, F45L
B8: 2C3: phage clone, domain 1 mutant P54S (protein)
chain: B2 chain with S20T, P54S
B9: SE3: phage clone, domain 1 mutant T20I (protein)
chain: B2 chain with S20I

Positions count from the first letter of the chain named. Numbers in names are those of the source.

One experiment has as its system rabbit anti-human β2GPI. Put plainly: Micropanning of mutant domain 1 phage, rabbit antibody. In kind it is binding. Set-up: key: 0 (<10 colonies) to 4+ (confluent) semiquantitative colony score. The following applies: Table 7A, first (or only) value. Here is the method: Error prone PCR was carried out as follows. Domain 1 of human β2GPI was amplified by PCR under conditions that enhance the error rate of Taq polymerase. The primers were such that amino acids 1-64 were amplified. A Sfc 1 restriction site was incorporated as part of amino acid 1. At the 3′ end a Sal 1 restriction site was incorporated after amino acid 64. The PCR reaction was done as described by Leung et al. (1989) Technique 1:11, using 0.25 mM MnCl2. The PCR product was digested with Sfc 1 and Sal 1 and cloned into fd-tet-DOG2 that had been digested with Apal 1 and Sal 1. This positions domain 1 at the N-terminus of pill immediately after the pill signal sequence. The ligation reaction was electroporated in E. coli K91. Phage were harvested and titered by standard methods. Resulting phage clones were assayed using a micropanning technique.
Immulon type 2 plates were coated with protein G. Protein G was prepared at 5 μg/mL in 0.1 M NaHCO3 and 100 μL per well was added to the wells of microtitration plates and incubated overnight at 4° C. After discarding excess protein G solution from plates, each well was blocked with 200 μL 2YT for 1 hour at RT with agitation on an oscillating platform. Tris-buffered saline, pH 7.4/0.5% Tween 20 (TBS/Tween), was used with an automatic plate washer to wash the wells 4 times with 200 μL. One hundred μL human β2GPI-dependent antiphospholipid 6626, 6501, 6701, rabbit β2GPI-dependent antiphospholipid, or control normal IgG, diluted to 2.5 μg/mL with 2YT, was added to washed wells. The plate was incubated for 1 hour at room temperature on a rotating platform.
Phage to be tested by micropanning were obtained from the agar plates generated by biopanning. Each clone to be tested was transferred using sterile toothpicks to a separate well of a round-bottom 96-well microtitration plate (Corning, Corning, N.Y.) containing 200 μL 2YT/Tet per well and cultured overnight at 30° C. Following overnight incubation, phage cultures were centrifuged using a microtitration plate holder at 1300×g for 10 minutes at room temperature. Supernatants constituted the source of “neat” phage. The neat phage were diluted 1: 100-1:1000 and 100 μL was added to the plate containing protein G-bound β2GPI-dependent antiphospholipid antibody-6501 and normal IgG prepared as described above. The incubation of dilute phage with aPL antibody or control IgG was carried out for 2 hours at room temperature on a flat rotator. After 9 washes with TBS/Tween in an automated plate washer, the IgG-bound phage was eluted with 20 μL of 0.2 N HCl-glycine/0.1% BSA, pH 2.2. The elution incubation continued for 10 minutes at RT, during which time a new Corning microtitration plate was prepared containing 20 μL of freshly starved E. coli per well and kept chilled. One hundred forty μL of 29 mM Tris was added to the plate containing the phage eluates in order to neutralize the pH, following which 20 μL of phage suspension was transferred from each well to the corresponding well in the plate containing starved E. coli. After a 10 minute incubation at 37° C., 200 μL 2YT was added and incubation carried out an additional 30 minutes at 37° C. Using multichannel pipettors, 8 μL from each well was spotted on a large 2YT/Tet agar plate while retaining the original 8×12 well pattern and orientation from the last microtitration plate. After allowing the spots to dry for 30 minutes, the plate was incubated overnight at 30° C. The following day, colonies were semiquantitatively scored from 0 to 4+, with 0 symbolizing <10 colonies; 1+=10-30; 2+=30 colonies to 70% confluent; 3+=70%-90% confluent; 4+=confluent.
For Table 7A, the rabbit anti-human β2GPI was performed on two separate occasions. Mutations are listed with the original amino acid, the position number, and the identity of the amino acid at that position in the mutant. […] Non-mutated domain 1 have a score of 3+, while domain 5 phage gave a score of −. Silent mutations are not shown. […]
Take B1: the μpan score was determined as 2.

B2 had a μpan score of 3.

B3 displayed a μpan score of 3.

Take B4: the μpan score turned out to be 3.

On to B5, for which the μpan score stood at 3.

Take B6: the μpan score is reported as 2, 2.

With B7, the μpan score is given as 3.

Molecule B8 registered a μpan score of 3.

Still in this experiment, the particulars now being: Table 7A, second value (second occasion).
In turn, B3 gave a μpan score of 4.

Consider B6, for which the μpan score is 2, 2.

The experiment is the same for the next values; noted with them: Table 7B, 1st column.
With B1, the Micropan score turned out to be 4.

In the case of B2, the Micropan score is 4.

Turning to B9, the Micropan score was determined as 4.

B3 displayed a Micropan score of 4.

B4 came in with a Micropan score of 4.

In turn, B5 registered a Micropan score of 4.

In the case of B7, the Micropan score turned out to be 4.

Molecule B8 displayed a Micropan score of 2.

The experiment is the same for the next values; noted with them: Table 7B, 2nd column.
In turn, B1 came in with a Micropan score of 4.

As for B2, the Micropan score worked out at 4.

As for B9, the Micropan score is listed as 4.

The molecule B3 had a Micropan score of 4.

In turn, B4 returned a Micropan score of 4.

B5 came in with a Micropan score of 4.

Molecule B7 returned a Micropan score of 4.

With B8, the Micropan score was 4.

Staying with this experiment, now noted: Table 7B, 3rd column.
As to B1, the Micropan score is listed as 4.

The molecule B2 had a Micropan score of 4.

Molecule B9 registered a Micropan score of 4.

B3 came in with a Micropan score of 4.

As for B4, the Micropan score is 4.

In turn, B5 displayed a Micropan score of 4.

B7 gave a Micropan score of 4.

For the molecule B8, the Micropan score turned out to be 4.

Staying with this experiment, now noted: Table 7B, 4th column.
With B1, the Micropan score was found to be 4.

Take B2: the Micropan score is listed as 4.

The molecule B9 yielded a Micropan score of 4.

Turning to B3, the Micropan score was 4.

Take B4: the Micropan score is 4.

B5 showed a Micropan score of 4.

With B7, the Micropan score is 4.

Regarding B8, the Micropan score is 4.

A further experiment deals with human β2GPI-dependent antiphospholipid antibody. Kind of experiment: Micropanning of mutant domain 1 phage, patient antibodies. Format: binding. Conditions: Table 7A, antibody 6501.
B1 registered a μpan score of 3.

B2 returned a μpan score of 3.

As for B3, the μpan score is on record as 3.

In turn, B4 registered a μpan score of 2.

With B5, the μpan score was found to be 3.

B6 displayed a μpan score of 2.

B7 showed a μpan score of 3.

With B8, the μpan score came to 1.

Still in this experiment, the particulars now being: Table 7A, antibody 6626.
As for B1, the μpan score is recorded as 2.

In turn, B2 displayed a μpan score of 3.

The molecule B3 came in with a μpan score of 3.

Consider B4, for which the μpan score was found to be 1.

Turning to B5, the μpan score was 3.

B6 gave a μpan score of 2.

Turning to B7, the μpan score is reported as 2.

B8: the μpan score was 1.

The same experiment, now with this note: Table 7A, antibody 6701.
With B1, the μpan score was 3.

B2 had a μpan score of 3.

Turning to B3, the μpan score came out at 3.

With B4, the μpan score amounted to 3.

In the case of B5, the μpan score was 3.

Turning to B6, the μpan score stood at 2.

Regarding B7, the μpan score is reported as 2.

B8 displayed a μpan score of 1.

Still in this experiment, the particulars now being: Table 7B, antibody 6226.
The molecule B1 registered a Micropan score of 4.

B2 displayed a Micropan score of 4.

Regarding B9, the Micropan score came to 3.

B3: the Micropan score was determined as 4.

In turn, B4 showed a Micropan score of 3.

As for B5, the Micropan score stood at 4.

For the molecule B7, the Micropan score was found to be 4.

Consider B8, for which the Micropan score stood at 2.

The experiment is the same for the next values; noted with them: Table 7B, antibody 6501.
The molecule B1 returned a Micropan score of 4.

On to B2, for which the Micropan score was found to be 4.

B9 displayed a Micropan score of 3.

Turning to B3, the Micropan score is reported as 4.

B4 came in with a Micropan score of 4.

The molecule B5 showed a Micropan score of 4.

B7: the Micropan score stood at 4.

B8 had a Micropan score of 2.

Staying with this experiment, now noted: Table 7B, antibody 6632.
The molecule B1 displayed a Micropan score of 3.

Molecule B2 showed a Micropan score of 4.

For the molecule B9, the Micropan score turned out to be 3.

B3 had a Micropan score of 4.

For the molecule B4, the Micropan score is reported as 4.

B5 registered a Micropan score of 4.

Take B7: the Micropan score is listed as 4.

Turning to B8, the Micropan score is listed as 3.

The same experiment, now with this note: Table 7B, antibody 6644.
With B1, the Micropan score came to 4.

B2 registered a Micropan score of 4.

For the molecule B9, the Micropan score is on record as 3.

Consider B3, for which the Micropan score was 4.

As to B4, the Micropan score is on record as 4.

For the molecule B5, the Micropan score was determined as 4.

For B7, the Micropan score is given as 4.

In turn, B8 returned a Micropan score of 3.

The experiment is the same for the next values; noted with them: Table 7B, antibody 6701.
As to B1, the Micropan score is on record as 4.

Turning to B2, the Micropan score worked out at 4.

B9 showed a Micropan score of 3.

Molecule B3 showed a Micropan score of 4.

The molecule B4 yielded a Micropan score of 4.

B5 gave a Micropan score of 4.

Turning to B7, the Micropan score stood at 2.

B8 displayed a Micropan score of 2.

Staying with this experiment, now noted: Table 7B, antibody 7008.
Take B1: the Micropan score is on record as 4.

B2: the Micropan score turned out to be 4.

B9: the Micropan score is listed as 4.

In turn, B3 registered a Micropan score of 4.

B4: the Micropan score is given as 4.

On to B5, for which the Micropan score is 4.

The molecule B7 showed a Micropan score of 4.

For the molecule B8, the Micropan score amounted to 3.
